The source of these data is patent publication US20210292414A1 (H LUNDBECK A S, published 2021).

T1: Sortilin SORTECDBAP_hB01-05 (human/tetraodon chimera)
T1 construct: Shuffle construct: chimeric human/tetraodon Sortilin ECD with BAP tag
T1 chain: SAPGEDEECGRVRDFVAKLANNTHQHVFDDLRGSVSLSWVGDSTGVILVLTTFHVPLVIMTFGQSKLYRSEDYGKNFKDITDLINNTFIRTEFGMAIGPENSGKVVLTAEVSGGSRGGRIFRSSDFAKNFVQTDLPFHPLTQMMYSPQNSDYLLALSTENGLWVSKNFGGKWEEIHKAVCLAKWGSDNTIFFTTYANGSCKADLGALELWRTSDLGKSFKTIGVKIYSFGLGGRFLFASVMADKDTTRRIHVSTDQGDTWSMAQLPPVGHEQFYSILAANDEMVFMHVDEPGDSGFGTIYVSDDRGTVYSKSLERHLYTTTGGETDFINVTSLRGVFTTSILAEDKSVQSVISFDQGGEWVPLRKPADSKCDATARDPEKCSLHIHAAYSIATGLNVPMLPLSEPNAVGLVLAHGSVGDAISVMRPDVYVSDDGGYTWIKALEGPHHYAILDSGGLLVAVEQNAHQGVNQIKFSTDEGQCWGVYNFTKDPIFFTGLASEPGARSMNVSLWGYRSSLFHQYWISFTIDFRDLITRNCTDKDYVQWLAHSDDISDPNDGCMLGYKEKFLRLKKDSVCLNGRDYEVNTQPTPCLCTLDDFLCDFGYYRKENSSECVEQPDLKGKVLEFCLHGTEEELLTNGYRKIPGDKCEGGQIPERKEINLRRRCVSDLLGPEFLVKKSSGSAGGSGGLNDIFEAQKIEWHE

T2: Sortilin SORTECDBAP_tetra (tetraodon)
T2 construct: Fully tetraodon Sortilin ECD with BAP tag; also called tetraodon; tetraodon Sortilin
T2 chain: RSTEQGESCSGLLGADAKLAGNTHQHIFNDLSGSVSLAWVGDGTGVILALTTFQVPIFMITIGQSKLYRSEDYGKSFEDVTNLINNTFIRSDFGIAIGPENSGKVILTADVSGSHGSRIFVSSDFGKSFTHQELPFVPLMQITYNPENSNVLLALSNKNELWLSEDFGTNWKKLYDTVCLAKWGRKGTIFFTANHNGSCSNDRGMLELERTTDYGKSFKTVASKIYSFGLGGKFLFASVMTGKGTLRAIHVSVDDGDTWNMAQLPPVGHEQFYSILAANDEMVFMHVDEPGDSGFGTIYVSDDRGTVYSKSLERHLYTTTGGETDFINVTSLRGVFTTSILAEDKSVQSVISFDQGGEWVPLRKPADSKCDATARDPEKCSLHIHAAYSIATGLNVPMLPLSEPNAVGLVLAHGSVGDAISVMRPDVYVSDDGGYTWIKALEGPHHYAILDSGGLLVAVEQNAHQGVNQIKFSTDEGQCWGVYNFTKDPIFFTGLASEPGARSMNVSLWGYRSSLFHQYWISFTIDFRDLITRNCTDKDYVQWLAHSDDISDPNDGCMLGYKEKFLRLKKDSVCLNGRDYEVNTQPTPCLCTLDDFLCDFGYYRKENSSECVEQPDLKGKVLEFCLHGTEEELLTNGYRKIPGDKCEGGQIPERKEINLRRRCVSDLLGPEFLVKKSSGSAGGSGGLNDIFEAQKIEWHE

T3: Sortilin hSORTECDBAP (human, UniProt Q99523 78-755)
T3 sequence: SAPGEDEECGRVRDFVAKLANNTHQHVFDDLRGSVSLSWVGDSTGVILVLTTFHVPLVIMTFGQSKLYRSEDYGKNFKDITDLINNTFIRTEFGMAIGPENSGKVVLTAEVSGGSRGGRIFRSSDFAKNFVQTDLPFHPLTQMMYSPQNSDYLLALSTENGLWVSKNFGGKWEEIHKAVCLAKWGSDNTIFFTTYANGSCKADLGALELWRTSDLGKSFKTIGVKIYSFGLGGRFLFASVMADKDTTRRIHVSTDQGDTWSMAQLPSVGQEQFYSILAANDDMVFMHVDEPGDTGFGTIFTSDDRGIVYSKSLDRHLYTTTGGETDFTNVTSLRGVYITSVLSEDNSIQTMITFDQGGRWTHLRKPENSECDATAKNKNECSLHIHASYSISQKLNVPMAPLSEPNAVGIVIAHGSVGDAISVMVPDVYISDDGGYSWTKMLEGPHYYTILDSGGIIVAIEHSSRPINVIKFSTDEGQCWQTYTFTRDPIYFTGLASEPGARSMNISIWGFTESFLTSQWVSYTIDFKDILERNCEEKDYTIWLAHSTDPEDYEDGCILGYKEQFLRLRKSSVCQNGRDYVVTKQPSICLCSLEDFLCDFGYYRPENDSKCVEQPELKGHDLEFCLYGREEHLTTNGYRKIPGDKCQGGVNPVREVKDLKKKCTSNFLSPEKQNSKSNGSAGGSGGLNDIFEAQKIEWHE

T4: Sortilin SORTECDBAP_hB06-10 (human/tetraodon chimera)
T4 construct: Shuffle construct: chimeric human/tetraodon Sortilin ECD with BAP tag
T4 chain: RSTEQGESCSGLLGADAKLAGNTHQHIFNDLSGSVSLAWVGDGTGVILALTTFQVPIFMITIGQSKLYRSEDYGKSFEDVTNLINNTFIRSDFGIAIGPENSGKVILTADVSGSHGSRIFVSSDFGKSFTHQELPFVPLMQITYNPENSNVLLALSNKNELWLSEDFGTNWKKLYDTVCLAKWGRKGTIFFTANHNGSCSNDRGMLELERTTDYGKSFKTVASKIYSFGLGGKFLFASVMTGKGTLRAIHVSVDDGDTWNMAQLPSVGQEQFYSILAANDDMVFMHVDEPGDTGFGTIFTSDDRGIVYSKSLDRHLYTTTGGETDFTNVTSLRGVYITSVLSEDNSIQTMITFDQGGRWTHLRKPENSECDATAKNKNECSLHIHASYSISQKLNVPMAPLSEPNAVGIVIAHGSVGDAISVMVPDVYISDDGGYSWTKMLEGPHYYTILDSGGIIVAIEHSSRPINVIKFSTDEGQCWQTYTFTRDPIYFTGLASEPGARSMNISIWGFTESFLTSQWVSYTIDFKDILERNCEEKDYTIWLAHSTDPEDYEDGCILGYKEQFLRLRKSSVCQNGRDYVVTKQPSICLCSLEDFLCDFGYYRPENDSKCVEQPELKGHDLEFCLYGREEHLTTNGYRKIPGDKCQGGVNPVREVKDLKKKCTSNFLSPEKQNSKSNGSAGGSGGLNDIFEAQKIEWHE

B1: Antibody 6003-1277 (antibody, V domains shown)
VH: QVQLVQSGAEVKKPGASVKVSCKTSGYTFTHYGISWVRQAPGQGLEWMGWINTYNGNTKYAQKLQGRVTMTTDTSTSTAYMELRSLRSDDTAVYYCASLGRNFDYWGQGTLVTVSS
VL: not shown
B2: Antibody 6003-381 (antibody, human IgG1, V domains shown)
VH: QVQLVESGGGVVQPGRSLRLSCAASGFTFSNYVMHWVRQAPGKGLEWVAAISYNGNNKYYADSVKGRFTISRDNSKNTLYLQMNSLRAEDTAVSYCAKGLNDAFDIWGQGTMVTVSS
VL: not shown
B3: Antibody 6003-030 (antibody, human IgG1, V domains shown)
VH: EVQVLESGGGLVQPGGSLRLSCAASGFTFSSYAMSWVRQAPGKGLEWVSTISGRGGNTYYADSVKGRFTISRDNSKNTLYLQMDSLRAEDTAVYYCAIIPSLYWYFDLWGRGTLVTVSS
VL: EIVLTQSPATLSLSPGERATLSCRASQSVSSYLAWYQQKPGQAPRLLIYDASNRATGIPARFSGSGSGTDFTLTISSLEPEDFAVYYCQQRSNWPLTFGGGTKVEIK
notes: Human antibody (HuMab); also called antibody 30; mAb30
B4: Antibody 6003-1286 (antibody, human IgG1, V domains shown)
VH: B3 VH with V4L, D84N, T91A, I98N, P100Y, L102H
VL: B3 VL with S30N
B5: Antibody 6003-028 (antibody, human IgG1, V domains shown)
VH: B3 VH with V4L, N57S, D84N, I98N, I99L, P100Y, L102N
VL: B3 VL with Y32F
B6: Antibody 6003-056 (antibody, human IgG1, V domains shown)
VH: B3 VH with A23V, S35H, T50A, N57S, D84N
VL: B3 VL with Y32F
B7: Antibody 6003-083 (antibody, human IgG1, V domains shown)
VH: B3 VH with V4L, N57S, D84N, I99V, P100A, S101T, L102M
VL: B3 VL with L96I, G100Q, K103R, V104L
B8: IgG1-6003-408 (antibody, V domains shown)
VH: EVQLVESGGGLVKPGGSLRLSCAASGFTFSSYSMNWVRQAPGKGLEWVSSISSSSSYIYYADSVKGRFTISRDNAKNSLYLQMNSLRAEDTAVYYCARRRIAAAGTGYGAFDIWGQGTMVTVSS
VL: ARQLTQSPSSLSASVGDRVTITCRASQGITSALAWYQQKPGKVPKLLIYDASSLESGVPSRFSGSGSGTDFTLTISSLQPEDFATYYCQQFNGYPMFSFGQGTKLEII
notes: also called Antibody 6003-408

Where a chain is given by its changes, count along the chain named.

The first test has as its target T1, Sortilin SORTECDBAP_hB01-05. Description: BLI (Octet384RED).
Turning to B1, the binding result is on record as “no binding”.

Turning to B2, the binding result is on record as “no binding”.

For B3, the binding result was “no binding”.

With B4, the binding result is given as “no binding”.

As to B5, the binding result is reported as “no binding”.

Regarding B6, the binding result was “no binding”.

As for B7, the binding result was “no binding”.

As for B8, the binding result was “no binding”.

In the next test the target is T2, Sortilin SORTECDBAP_tetra. The experiment in a line: BLI (Octet384RED).
As to B1, the binding result is listed as “no binding”.

For B2, the binding result was “no binding”.

For B3, the binding result is reported as “no binding”.

For B4, the binding result is “no binding”.

As for B5, the binding result was “no binding”.

For B6, the binding result is “no binding”.

With B7, the binding result is “no binding”.

On to B8, for which the binding result is listed as “no binding”.

A further test addresses T3, Sortilin hSORTECDBAP
Description: BLI (Octet384RED).
In turn, B1 displayed a concentration for a half-maximal effect (EC50) of 3.03 ng/mL.

Molecule B2 yielded an EC50 of 1.82 ng/mL.

Consider B3, for which the concentration giving a half-maximal response (EC50) amounted to 0.89 ng/mL.

B4 showed a concentration for a half-maximal effect (EC50) of 1.02 ng/mL. The EC50 values of the last two molecules are within 1.5-fold of each other.

In the case of B5, the EC50 was 1.75 ng/mL.

B6: the EC50 came out at 1.26 ng/mL.

In turn, B7 showed a concentration giving a half-maximal response (EC50) of 0.77 ng/mL.

As for B8, the concentration for a half-maximal effect (EC50) stood at 1.93 ng/mL.

The target of the next test is T4, Sortilin SORTECDBAP_hB06-10. The experiment in a line: BLI (Octet384RED).
B1: a half-maximal response (EC50) required 2.62 ng/mL.

Consider B2, for which the EC50 worked out at 1.34 ng/mL.

In turn, B3 displayed an EC50 of 0.74 ng/mL.

B4 displayed an EC50 of 0.87 ng/mL.

As for B5, the half-maximal effective concentration (EC50) stood at 1.56 ng/mL.

As to B6, the EC50 is 0.97 ng/mL. This EC50 lies about 1.6-fold lower than the previous one.

Take B7: the EC50 is 0.76 ng/mL.

As for B8, the response was half-maximal at 1.68 ng/mL (EC50).

Broadly, the EC50 is the midpoint of the concentration-response curve. High values mean lower potency in that assay, low ones higher potency in that assay.
